For the test, the target named is wt ACE2_(615)-Fc (M27) (human) (UniProt Q9BYF1). The test can be described thus: SPR. (In general: In SPR one partner is held on a chip, and binding of the other changes the refractive index at the surface.)
Sequence of wt ACE2_(615)-Fc (M27) (human) (Q9BYF1 18-615): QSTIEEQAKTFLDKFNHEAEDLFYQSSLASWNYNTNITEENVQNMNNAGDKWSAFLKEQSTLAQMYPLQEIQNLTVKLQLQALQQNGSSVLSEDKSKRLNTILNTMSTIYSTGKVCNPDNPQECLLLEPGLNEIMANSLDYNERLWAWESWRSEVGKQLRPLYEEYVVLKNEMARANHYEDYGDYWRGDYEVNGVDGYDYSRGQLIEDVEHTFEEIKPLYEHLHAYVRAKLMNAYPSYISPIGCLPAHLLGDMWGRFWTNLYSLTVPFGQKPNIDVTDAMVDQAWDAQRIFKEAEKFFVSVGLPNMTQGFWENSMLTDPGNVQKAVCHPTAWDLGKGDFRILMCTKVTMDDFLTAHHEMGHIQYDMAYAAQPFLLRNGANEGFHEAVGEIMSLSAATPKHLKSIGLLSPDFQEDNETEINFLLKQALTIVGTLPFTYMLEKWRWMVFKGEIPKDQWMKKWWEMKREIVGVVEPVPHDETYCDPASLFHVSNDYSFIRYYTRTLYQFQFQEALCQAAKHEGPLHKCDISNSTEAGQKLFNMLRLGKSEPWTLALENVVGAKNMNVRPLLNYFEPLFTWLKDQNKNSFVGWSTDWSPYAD

In turn, “SARS-CoV RBD (residues 306 to 577) (domain or fragment)” returned a fold lower affinity than RBDwt on M27 of 5 fold.

These data come from paper PMC9278865.
